This is an account of results in paper PMC12273708, “Biochemical and Biophysical Divergences between Two L‑Asparaginase II Variants: Potential for Using EcA2-K12 as a Biosimilar” (Biochemistry, 2025).

A word on the Kd: it is the equilibrium constant for the complex coming apart. A low value points to tighter binding. Usually stoichiometry N stands for a count of units in the complex or per binding partner. Usually Km stands for the substrate concentration at which the rate is half of its maximum.

The target in series [1] is T1, EcA2-K12 (L-asparaginase II, K12 strain) (Escherichia coli, UniProt P00805).
T1 construct: gene ansB; mature protein (precursor residues 23 to 348) behind a pelB leader, pET25b, secreted from E. coli BL21(DE3), purified from medium; no tag mentioned; homotetramer with four active sites
T1 sequence (P00805 23-348): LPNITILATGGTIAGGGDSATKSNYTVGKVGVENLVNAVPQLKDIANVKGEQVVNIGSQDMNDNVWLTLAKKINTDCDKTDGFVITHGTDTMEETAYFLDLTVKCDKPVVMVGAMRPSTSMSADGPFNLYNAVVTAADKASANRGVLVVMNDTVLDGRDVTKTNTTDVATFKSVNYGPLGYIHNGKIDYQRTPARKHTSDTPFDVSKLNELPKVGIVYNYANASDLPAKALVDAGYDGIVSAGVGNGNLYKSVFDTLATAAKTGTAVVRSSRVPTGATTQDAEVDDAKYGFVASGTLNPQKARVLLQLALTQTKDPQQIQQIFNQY
As to the kind of experiment: intrinsic tryptophan fluorescence titration (spectral center of mass), Hill fit. In kind it is binding.

Series [2] addresses T2, EcA2-4M (L-asparaginase II, BL21(DE3) / Elspar sequence) (Escherichia coli, UniProt P00805, N86D/S274T/T285N/V49A).
T2 construct: gene ansB; mature protein (precursor residues 23 to 348) behind a pelB leader, pET25b, secreted from E. coli BL21(DE3), purified from medium; no tag mentioned; homotetramer with four active sites
T2 sequence (P00805 23-348 V49A/N86D/S274T/T285N): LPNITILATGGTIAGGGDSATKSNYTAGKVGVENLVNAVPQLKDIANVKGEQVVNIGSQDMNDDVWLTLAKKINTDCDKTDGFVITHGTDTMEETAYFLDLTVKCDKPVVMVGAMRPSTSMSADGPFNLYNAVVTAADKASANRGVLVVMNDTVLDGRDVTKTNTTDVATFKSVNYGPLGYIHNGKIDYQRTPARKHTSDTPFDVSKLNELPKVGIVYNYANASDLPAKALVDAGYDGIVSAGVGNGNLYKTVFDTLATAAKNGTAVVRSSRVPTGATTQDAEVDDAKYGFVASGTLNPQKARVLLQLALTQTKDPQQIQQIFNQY
Described as above. In kind it is binding.

Series [3] in a line: SEC; analytical size exclusion chromatography, TSKgel G2000SWXL, 50 uM enzyme in 25 mM sodium phosphate pH 7.4, 100 mM sodium chloride, 0.35 mL/min; hydrodynamic radius against globular standards. In general terms: Size exclusion chromatography separates by hydrodynamic size, large species first.
Series [4] has as its target L-asparaginase II from the K12 strain (EcA2-K12) (Escherichia coli, strain K12 (strain printed; the species name is lost from the text shown)). Described as above.
The target in series [5] is L-asparaginase II variant EcA2-4M (sequence of the BL21(DE3) strain and of Elspar) (Escherichia coli, strain BL21(DE3) (strain printed; the species name is lost from the text shown)). The description is as above.
Substrate in series [6]: NC(=O)CC[C@H](N)C(=O)O
As to the kind of experiment: 1D 1H NMR progress curves, Lambert W fit of integrated Michaelis-Menten equation. In kind it is biochemical, Escherichia coli. To be noted: 640 μM L-Gln, 2.5 μM enzyme, 100 mM sodium phosphate pH 8.0, 10% D2O, 25 °C. The text has this: (§1) 1D 1H NMR progress curves, Lambert W fit of integrated Michaelis-Menten equation on EcA2-K12 (L-asparaginase II, K12 strain)

Substrate in series [7]: NC(=O)C[C@H](N)C(=O)O
Described as above. In kind it is biochemical, Escherichia coli. As to conditions: 160 μM L-Asn, 2.1 nM enzyme, 100 mM sodium phosphate pH 8.0, 10% D2O, 25 °C.
Description: as §1

Substrate in series [8]: NC(=O)CC[C@H](N)C(=O)O
Described as above. The series is classed as biochemical, Escherichia coli. To be noted: 640 μM L-Gln, 1.3 μM enzyme, 100 mM sodium phosphate pH 8.0, 10% D2O, 25 °C. The source says: (§2) 1D 1H NMR progress curves, Lambert W fit of integrated Michaelis-Menten equation on EcA2-4M (L-asparaginase II, BL21(DE3) / Elspar sequence)

Substrate in series [9]: NC(=O)C[C@H](N)C(=O)O
The series is described as above. In kind it is biochemical, Escherichia coli. As to conditions: 160 μM L-Asn, 1.0 nM enzyme, 100 mM sodium phosphate pH 8.0, 10% D2O, 25 °C.
Description: as §2

Consider `N[C@@H](CC(=O)O)C(=O)O` [L-Asp], for which the results for the Kd in series [1] and in [2] were 211 ± 52 µM and 66 ± 14 µM, respectively.
With “L-asparaginase II from the K12 strain (EcA2-K12)”, in series [3], the “prepeak percentage of the total area (species of larger hydrodynamic radii)” value is listed as 13% for EcA2-K12.
“L-asparaginase II from the K12 strain (EcA2-K12) (enzyme)” gave a stoichiometry N in series [4] of 4.
As for “L-asparaginase II variant EcA2-4M (sequence of the BL21(DE3) strain and of Elspar)”, the “prepeak percentage of the total area (species of larger hydrodynamic radii)” value in series [3] is listed as “approximately 5%”.
Take “L-asparaginase II variant EcA2-4M (sequence of the BL21(DE3) strain and of Elspar) (enzyme)”: the stoichiometry N in [5] is 4.

B1: EcA2-K12 (L-asparaginase II, K12 strain) (Escherichia coli K-12) (protein)
chain: LPNITILATGGTIAGGGDSATKSNYTVGKVGVENLVNAVPQLKDIANVKGEQVVNIGSQDMNDNVWLTLAKKINTDCDKTDGFVITHGTDTMEETAYFLDLTVKCDKPVVMVGAMRPSTSMSADGPFNLYNAVVTAADKASANRGVLVVMNDTVLDGRDVTKTNTTDVATFKSVNYGPLGYIHNGKIDYQRTPARKHTSDTPFDVSKLNELPKVGIVYNYANASDLPAKALVDAGYDGIVSAGVGNGNLYKSVFDTLATAAKTGTAVVRSSRVPTGATTQDAEVDDAKYGFVASGTLNPQKARVLLQLALTQTKDPQQIQQIFNQY
notes: mature protein (precursor residues 23 to 348) behind a pelB leader, pET25b, secreted from E. coli BL21(DE3), purified from medium; no tag mentioned; homotetramer with four active sites
As for B1, the Km in [6] was found to be 2301 ± 75 µM; in series [7], 8 ± 3 µM.

B2: EcA2-4M (L-asparaginase II, BL21(DE3) / Elspar sequence) (Escherichia coli K-12; N86D/S274T/T285N/V49A) (protein)
chain: LPNITILATGGTIAGGGDSATKSNYTAGKVGVENLVNAVPQLKDIANVKGEQVVNIGSQDMNDDVWLTLAKKINTDCDKTDGFVITHGTDTMEETAYFLDLTVKCDKPVVMVGAMRPSTSMSADGPFNLYNAVVTAADKASANRGVLVVMNDTVLDGRDVTKTNTTDVATFKSVNYGPLGYIHNGKIDYQRTPARKHTSDTPFDVSKLNELPKVGIVYNYANASDLPAKALVDAGYDGIVSAGVGNGNLYKTVFDTLATAAKNGTAVVRSSRVPTGATTQDAEVDDAKYGFVASGTLNPQKARVLLQLALTQTKDPQQIQQIFNQY
notes: as for B1
Take B2: the Michaelis constant (Km) amounted to 3111 ± 159 µM in series [8] and 11 ± 5 µM in series [9].
